This experiment has as its target T1, IGF ligand 2 (IGF-2) (human, UniProt P01344 25-91).
T1 construct: Used as antigen in ELISA and as stimulus (10 nM) on MCF-7 cells; also called insulin-like growth factor 2
Description: ELISA.

T1 sequence (P01344 25-91 limits assumed): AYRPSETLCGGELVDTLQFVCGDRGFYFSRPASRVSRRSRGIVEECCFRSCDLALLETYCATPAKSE

B1: m636 (VHH)
VHH: QVQLVQSGGGLVQPGGSLRLSCAASYYSLQHDNFPYTFMSWVRQAPGQRLEWVSGISGSGGSTYYADSVKGRFTISRDNSKNTLYLQMNTLRAEDTAMYYCARIRWLQDLDYWGQGTLVTVSS
notes: Human VH single domain antibody (dAb) selected from phage library m91; also called dAb m636; IGF-2 dAb
Take B1: the binding result is “binds”.

These data come from patent US20120195897A1 (US Dept. of Health and Human Services, published 2012).
